Patent publication US20240383985A1 (QURE BIOTECHNOLOGY SHANGHAI, published 2024)
Numbering of substitutions follows the chain as printed. Numbers in names are those of the source.

B1: CD33 antibody IgG1 wt subtype QP41154116 (antibody, V domains shown)
VH: QVQLVQSGAEVKKPGESVKVSCKASGYTFTNYGMNWVKQAPGQGLEWMGWINTYTGEPTYADKFQGRVTMTTDTSTSTAYMEIRNLGGDDTAVYYCARWSWSDGYYVYFDYWGQGTSVTVSS
VL: DIVMTQSPDSLTVSLGERTTINCKSSQSVLDSSTNKNSLAWYQQKPGQPPKLLLSWASTRESGIPDRFSGSGSGTDFTLTIDSPQPEDSATYYCQQSAHFPITFGQGTRLEIKR
notes: IgG1 wild-type control antibody; also called antiCD33 antibody
B2: CD33/CD16A/IL-15 trifunctional fusion protein QP743745 (FC wild-type) (bispecific antibody)
chain 1: not shown
chain 2: not shown
light: DIVMTQSPDSLTVSLGERTTINCKSSQSVLDSSTNKNSLAWYQQKPGQPPKLLLSWASTRESGIPDRFSGSGSGTDFTLTIDSPQPEDSATYYCQQSAHFPITFGQGTRLEIKRTVAAPSVFIFPPSDEQLKSGTASVVCLLNNFYPREAKVQWKVDNALQSGNSQESVTEQDSKDSTYSLSSTLTLSKADYEKHKVYACEVTHQGLSSPVTKSFNRGEC
heavy: QVQLVQSGAEVKKPGESVKVSCKASGYTFTNYGMNWVKQAPGQGLEWMGWINTYTGEPTYADKFQGRVTMTTDTSTSTAYMEIRNLGGDDTAVYYCARWSWSDGYYVYFDYWGQGTSVTVSSASTKGPSVFPLAPSSKSTSGGTAALGCLVKDYFPEPVTVSWNSGALTSGVHTFPAVLQSSGLYSLSSVVTVPSSSLGTQTYICNVNHKPSNTKVDKKVEPKSCDKTHTCPPCPAPELLGGPSVFLFPPKPKDTLMISRTPEVTCVVVDVSHEDPEVKFNWYVDGVEVHNAKTKPREEQYNSTYRVVSVLTVLHQDWLNGKEYKCKVSNKALPAPIEKTISKAKGQPREPQVYTLPPSREEMTKNQVSLSCAVKGFYPSDIAVEWESNGQPENNYKTTPPVLDSDGSFFLVSKLTVDKSRWQQGNVFSCSVMHEALHNRYTQKSLSLSPGK
B3: CD33/CD16A bispecific antibody QP4115777778 (FC wild-type) (bispecific antibody, human IgG1, kappa)
chain: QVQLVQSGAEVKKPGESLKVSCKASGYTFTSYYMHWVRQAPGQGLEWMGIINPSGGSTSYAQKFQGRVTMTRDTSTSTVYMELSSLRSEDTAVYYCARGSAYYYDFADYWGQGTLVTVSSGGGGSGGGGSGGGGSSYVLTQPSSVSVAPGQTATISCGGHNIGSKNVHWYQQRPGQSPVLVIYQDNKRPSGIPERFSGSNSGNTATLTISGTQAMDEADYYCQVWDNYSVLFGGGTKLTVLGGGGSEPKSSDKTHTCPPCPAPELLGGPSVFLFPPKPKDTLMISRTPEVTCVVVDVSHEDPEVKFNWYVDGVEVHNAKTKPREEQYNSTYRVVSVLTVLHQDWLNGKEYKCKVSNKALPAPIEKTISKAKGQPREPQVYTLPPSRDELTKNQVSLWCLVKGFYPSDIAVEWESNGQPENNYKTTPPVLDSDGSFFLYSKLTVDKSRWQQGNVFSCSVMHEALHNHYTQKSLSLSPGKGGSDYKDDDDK
heavy: QVQLVQSGAEVKKPGESVKVSCKASGYTFTNYGMNWVKQAPGQGLEWMGWINTYTGEPTYADKFQGRVTMTTDTSTSTAYMEIRNLGGDDTAVYYCARWSWSDGYYVYFDYWGQGTSVTVSSASTKGPSVFPLAPSSKSTSGGTAALGCLVKDYFPEPVTVSWNSGALTSGVHTFPAVLQSSGLYSLSSVVTVPSSSLGTQTYICNVNHKPSNTKVDKKVEPKSCDKTHTCPPCPAPELLGGPSVFLFPPKPKDTLMISRTPEVTCVVVDVSHEDPEVKFNWYVDGVEVHNAKTKPREEQYNSTYRVVSVLTVLHQDWLNGKEYKCKVSNKALPAPIEKTISKAKGQPREPQVYTLPPSREEMTKNQVSLSCAVKGFYPSDIAVEWESNGQPENNYKTTPPVLDSDGSFFLVSKLTVDKSRWQQGNVFSCSVMHEALHNRYTQKSLSLSPGKGGSHHHHHH
light: B2 light
notes: also called QP411577778; CD16A/CD33 bispecific antibody
B4: CD33/CD16A/IL-15 trifunctional fusion protein QP43394340 (FC with L234A/L235A mutation for eliminating function) (bispecific antibody)
chain 1: not shown
chain 2: not shown
light: B2 light
heavy: B2 heavy with L239A, L240A
notes: Four-chain heterodimer, hIgG1 Fc LALA; plasmid names mention Flag and His tags
B5: CD33/CD16A/IL-15 trifunctional fusion protein QP42914285 (FC with L234A/L235A mutation for eliminating function) (bispecific antibody)
light: SYVLTQPSSVSVAPGQTATISCGGHNIGSKNVHWYQQRPGQSPVLVIYQDNKRPSGIPERFSGSNSGNTATLTISGTQAMDEADYYCQVWDNYSVLFGGGTKLTVLRTVAAPSVFIFPPSDEQLKSGTASVVCLLNNFYPREAKVQWKVDNALQSGNSQESVTEQDSKDSTYSLSSTLTLSKADYEKHKVYACEVTHQGLSSPVTKSFNRGEC
heavy: QVQLVQSGAEVKKPGESLKVSCKASGYTFTSYYMHWVRQAPGQGLEWMGIINPSGGSTSYAQKFQGRVTMTRDTSTSTVYMELSSLRSEDTAVYYCARGSAYYYDFADYWGQGTLVTVSSASTKGPSVFPLAPSSKSTSGGTAALGCLVKDYFPEPVTVSWNSGALTSGVHTFPAVLQSSGLYSLSSVVTVPSSSLGTQTYICNVNHKPSNTKVDKKVEPKSCDKTHTCPPCPAPEAAGGPSVFLFPPKPKDTLMISRTPEVTCVVVDVSHEDPEVKFNWYVDGVEVHNAKTKPREEQYNSTYRVVSVLTVLHQDWLNGKEYKCKVSNKALPAPIEKTISKAKGQPREPQVYTLPPSREEMTKNQVSLSCAVKGFYPSDIAVEWESNGQPENNYKTTPPVLDSDGSFFLVSKLTVDKSRWQQGNVFSCSVMHEALHNRYTQKSLSLSPGKGGSHHHHHH
chain 1: not shown
chain 2: not shown
notes: Four-chain heterodimer: anti-CD16A Fab arm and anti-CD33 Fv-IL-15/IL-15Ra arm

biological target: T1, CD33 naturally expressed on HL60 cells (human, UniProt P20138 18-364); test: flow cytometry on HL60 cells, PE-anti human Fc detection
T1 construct: whole, on cells
Experimental: Experimental method: HL60 cells were cultured in a 5% CO₂ incubator at 37° C. After trypsin digestion, cells were collected and inoculated into 96-well plates at 100,000 cells per well. Then the plate was subjected to blocking on ice for 1 hour with 2% FBS/PBS. The cells were incubated with different concentrations of trifunctional proteins and control protein on ice for 1 hour, washed with PBS for 3 times, and incubated with PE-anti human Fc (1:200 dilution). The cells were washed with PBS for 3 times, and resuspended with 200 μl PBS. The mean fluorescence value was read by FACS and Graphpad prism software was used to analyze the results.

T1 sequence (P20138 18-364): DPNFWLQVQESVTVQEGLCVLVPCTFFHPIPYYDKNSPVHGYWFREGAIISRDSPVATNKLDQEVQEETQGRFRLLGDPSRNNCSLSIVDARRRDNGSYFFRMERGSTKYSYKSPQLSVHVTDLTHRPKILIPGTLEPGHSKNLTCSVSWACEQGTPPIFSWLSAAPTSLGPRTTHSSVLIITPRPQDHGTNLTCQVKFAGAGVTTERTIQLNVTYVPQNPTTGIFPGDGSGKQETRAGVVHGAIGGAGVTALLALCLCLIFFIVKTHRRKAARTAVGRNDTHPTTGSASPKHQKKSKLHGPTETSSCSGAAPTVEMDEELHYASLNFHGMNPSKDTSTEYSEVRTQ

binding result	Binder
binds	B1
binds	B2
binds	B3
binds	B4
binds	B5
